Test results reported in article PMC3855908 (Traffic (Copenhagen, Denmark), 2013).

T1: Pan1 (recombinantly purified, unpublished data) (yeast, UniProt P32521 1-1480)
T1 sequence (looked up): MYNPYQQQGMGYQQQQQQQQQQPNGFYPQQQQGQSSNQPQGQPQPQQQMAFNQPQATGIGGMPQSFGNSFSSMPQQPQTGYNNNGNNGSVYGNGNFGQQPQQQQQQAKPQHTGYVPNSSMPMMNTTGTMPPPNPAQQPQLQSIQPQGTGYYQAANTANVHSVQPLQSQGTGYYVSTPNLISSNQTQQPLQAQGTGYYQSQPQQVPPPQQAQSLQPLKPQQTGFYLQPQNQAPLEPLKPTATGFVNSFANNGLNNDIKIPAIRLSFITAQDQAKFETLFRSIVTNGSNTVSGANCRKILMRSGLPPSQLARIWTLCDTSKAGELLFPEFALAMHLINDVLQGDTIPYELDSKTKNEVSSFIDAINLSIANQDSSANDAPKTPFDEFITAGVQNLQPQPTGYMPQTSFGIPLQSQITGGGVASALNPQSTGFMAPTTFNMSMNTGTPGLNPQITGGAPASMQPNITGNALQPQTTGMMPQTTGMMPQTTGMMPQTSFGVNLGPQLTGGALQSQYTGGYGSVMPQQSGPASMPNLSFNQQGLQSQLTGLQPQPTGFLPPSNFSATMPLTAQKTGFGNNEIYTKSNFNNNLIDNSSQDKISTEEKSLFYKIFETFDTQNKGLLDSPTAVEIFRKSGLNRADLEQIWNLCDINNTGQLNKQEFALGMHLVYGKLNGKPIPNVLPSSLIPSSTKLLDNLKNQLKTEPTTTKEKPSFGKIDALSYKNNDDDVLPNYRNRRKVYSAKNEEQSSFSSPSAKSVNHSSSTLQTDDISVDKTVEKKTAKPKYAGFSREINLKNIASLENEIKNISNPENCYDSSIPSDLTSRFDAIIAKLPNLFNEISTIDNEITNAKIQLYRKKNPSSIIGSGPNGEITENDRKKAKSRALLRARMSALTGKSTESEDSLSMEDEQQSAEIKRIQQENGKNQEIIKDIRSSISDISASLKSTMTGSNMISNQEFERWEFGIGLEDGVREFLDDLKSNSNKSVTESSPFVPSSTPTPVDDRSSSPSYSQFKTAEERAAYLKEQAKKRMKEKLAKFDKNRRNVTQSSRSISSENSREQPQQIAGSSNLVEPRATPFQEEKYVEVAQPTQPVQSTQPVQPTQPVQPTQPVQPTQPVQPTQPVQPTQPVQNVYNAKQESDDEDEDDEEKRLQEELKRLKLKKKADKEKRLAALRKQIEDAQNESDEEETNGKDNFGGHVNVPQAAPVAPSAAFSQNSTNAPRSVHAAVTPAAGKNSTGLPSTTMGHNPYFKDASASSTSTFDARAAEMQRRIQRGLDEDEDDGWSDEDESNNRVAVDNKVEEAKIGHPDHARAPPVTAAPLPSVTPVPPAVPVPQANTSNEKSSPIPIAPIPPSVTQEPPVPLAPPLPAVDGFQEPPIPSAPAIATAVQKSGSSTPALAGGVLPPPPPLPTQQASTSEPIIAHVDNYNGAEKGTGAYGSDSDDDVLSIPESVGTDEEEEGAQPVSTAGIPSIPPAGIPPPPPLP

T2: Gal4 DBD-Pan1^687–1190 (yeast, UniProt P32521 687-1190)
T2 sequence (looked up): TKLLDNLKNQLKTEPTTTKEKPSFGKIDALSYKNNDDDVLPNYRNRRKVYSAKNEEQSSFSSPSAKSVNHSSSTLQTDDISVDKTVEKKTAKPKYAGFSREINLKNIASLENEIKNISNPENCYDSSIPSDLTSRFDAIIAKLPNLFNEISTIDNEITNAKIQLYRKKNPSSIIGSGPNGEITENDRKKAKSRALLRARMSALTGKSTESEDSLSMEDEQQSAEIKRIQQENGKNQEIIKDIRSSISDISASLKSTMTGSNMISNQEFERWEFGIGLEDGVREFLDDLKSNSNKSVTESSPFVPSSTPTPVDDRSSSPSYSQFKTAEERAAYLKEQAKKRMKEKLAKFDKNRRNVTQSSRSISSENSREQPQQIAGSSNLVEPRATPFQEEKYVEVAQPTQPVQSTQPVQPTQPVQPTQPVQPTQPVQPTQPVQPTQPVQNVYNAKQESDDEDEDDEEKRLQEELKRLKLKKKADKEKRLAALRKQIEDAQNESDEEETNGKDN

T3: Gal4 DBD-Pan1^792–948 (yeast, UniProt P32521 792-948)
T3 sequence (looked up): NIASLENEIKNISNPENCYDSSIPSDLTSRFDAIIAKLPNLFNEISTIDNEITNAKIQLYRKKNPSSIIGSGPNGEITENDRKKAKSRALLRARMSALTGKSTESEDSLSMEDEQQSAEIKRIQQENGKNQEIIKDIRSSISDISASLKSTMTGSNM

T4: Gal4 DBD-Pan1^687–846 (yeast, UniProt P32521 687-846)
T4 sequence (looked up): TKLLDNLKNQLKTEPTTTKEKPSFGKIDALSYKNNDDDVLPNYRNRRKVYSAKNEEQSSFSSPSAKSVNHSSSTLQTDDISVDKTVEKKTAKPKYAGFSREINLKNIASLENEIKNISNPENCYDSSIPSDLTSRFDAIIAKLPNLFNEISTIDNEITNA


Legend:
[1] = molecular target: T1, Pan1 (recombinantly purified, …)
Gal4 DBD-Pan1^687–1190 = molecular target: T2, Gal4 DBD-Pan1^687–1190; assay: two-hybrid
Gal4 DBD-Pan1^792–948 = molecular target: T3, Gal4 DBD-Pan1^792–948; assay: two-hybrid
Gal4 DBD-Pan1^687–846 = molecular target: T4, Gal4 DBD-Pan1^687–846; assay: two-hybrid

stoichiometry N [1]	Miller Units (Gal4 DBD-Pan1^687–1190) [Miller Units]	Miller Units (Gal4 DBD-Pan1^792–948) [Miller Units]	Miller Units (Gal4 DBD-Pan1^687–846) [Miller Units]	Binder
1				End3 (recombinantly purified, unpublished data) (natural protein, yeast, UniProt P39013 1-349, looked up) MPKLEQFEIKKYWQIFSGLKPIENKVNHDQVLPILYNSKLDSSVLNKIWFLADIDDDDNLDFEEFVICMRLIFDMVNKNISSVPDELPDWLIPGSKVNLIKERKKRKQIENADLPPKKEIKVDWYMSPDDLNQYEKIYNSCAKLTDGTITFNELSTKLSTKFFNISKTDLNKVWSLINPQNLPSIDRDPTFYFIHCLRQRNDLGAEIPASLPNSLAEVCNKKQLSYDLRSSQPPTKRKEEANEVDNLRDNGQNSSSDSSGSNVLSNEDSIKQKYASLTDDQVANMREQLEGLLNYKKSEKTQGGSKLSKRINIRSITDDLDNIEQQVEVLENYLNNKRHELQALQAEIN
	412	99.7	80.1	Gal4 AD-End3^176–349 (domain or fragment, yeast, UniProt P39013 176-349, looked up) LINPQNLPSIDRDPTFYFIHCLRQRNDLGAEIPASLPNSLAEVCNKKQLSYDLRSSQPPTKRKEEANEVDNLRDNGQNSSSDSSGSNVLSNEDSIKQKYASLTDDQVANMREQLEGLLNYKKSEKTQGGSKLSKRINIRSITDDLDNIEQQVEVLENYLNNKRHELQALQAEIN
